Source: PMC12316387

Target: gHgLgO249 complex of 131stop-gO249 virions (human cytomegalovirus, strain TB40/E)
Assay: co-IP + pull-down; gB co-precipitated with gHgLgO from 131stop and 131stop-gO249 virion lysates using anti-gH antibody 14-4b or PDGFRα-Fc; WB, ImageJ; gO precipitation levels normalized and relative gB levels determined

## glycoprotein gB of HCMV virions (natural protein)
  fold change of co-precipitated gB against gHgLgOWT: 4 fold
